Consider 9 sequences from the Immune Epitope Database (IEDB).

As usually defined, the IC50 is the concentration that inhibits the measured activity by half.

The first assay has as its target HLA-A*02:01. In words: IEDB peptide-MHC binding, purified MHC/competitive/radioactivity; ≥ and ≤ were set here for values at or beyond the usual limits of such assays. Conditions: source organism: Hepacivirus hominis.
On to VLAALAAYCL, for which the IC50 was found to be 100 nM.

The target of the next assay is HLA-A*03:01. Described as above. Conditions: source organism: Hepacivirus hominis.
As for AVCTRGVAK, the IC50 is 385 nM. Consider TLHGPTPLLY, for which the IC50 came out at 112 nM. On the same count and under the same terms, the value for HLIFCHSKK was 400 nM; that for RLLAPITAY was 4 nM; that for HLHAPTGSGK was 17 nM. Take WMNSTGFTK: the IC50 was found to be 189 nM. On to HLIFCHSKKK, for which the IC50 amounted to 385 nM.

For another assay, the target named is HLA-A*11:01. Described as above. Conditions: source organism: Hepacivirus hominis.
As for SVPAEILRK, the IC50 came out at 13 nM.
